Measurements as given in patent publication US7005504 (Genentech, dated 2006).
Read-outs that look alike come from different tables or passages of the source.

Legend:
[1] = molecular target: T1, recombinant human IL-8, (ser-IL-8)72 (human, UniProt P10145 28-99, In some assays the protein was iodinated (125I on tyrosine) or coated on a plate. The letters are unchanged.); test: 125I-IL-8 neutrophil competition; reference not named in the sentence (chimeric F(ab) by Table 4)
T1 construct: also called wild type human IL-8; wt IL-8
T1 sequence: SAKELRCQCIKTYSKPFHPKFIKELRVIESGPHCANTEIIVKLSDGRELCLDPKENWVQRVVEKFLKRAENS

[2] = molecular target: T1, recombinant human IL-8, (ser-IL-8)72; test: inhibition of 125I-IL-8 binding to the IL-8 receptors on human neutrophils (Bound/Total against cold ligand in nM)
[3] = molecular target: T1, recombinant human IL-8, (ser-IL-8)72; test: cell-based or functional assay
[4] = molecular target: T1, recombinant human IL-8, (ser-IL-8)72; test: 125I-IL-8 neutrophil competition, against F(ab)-1
[5] = molecular target: T2, rabbit IL-8 (rabbit, UniProt P19874 23-101, limits assumed); test: cell-based or functional assay
T2 sequence (looked up): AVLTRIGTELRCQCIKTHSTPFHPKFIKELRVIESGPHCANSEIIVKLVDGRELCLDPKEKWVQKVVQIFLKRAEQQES

[6] = molecular target: human monomeric IL-8 (human); test: cell-based or functional assay
[7] = molecular target: T3, rhesus IL-8 (rhesus, UniProt P67813 23-101, limits assumed); test: cell-based or functional assay
T3 sequence (looked up): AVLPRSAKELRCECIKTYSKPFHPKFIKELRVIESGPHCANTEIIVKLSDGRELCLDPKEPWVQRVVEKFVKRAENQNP

[8] = molecular target: T1, recombinant human IL-8, (ser-IL-8)72; test: inhibition of 125I-IL-8 binding to the IL-8 receptors on human neutrophils (Bound/Total against cold ligand in nM); remark: listed apart in the source
[9] = molecular target: T1, recombinant human IL-8, (ser-IL-8)72; test: cell-based or functional assay; remark: listed apart in the source
[10] = molecular target: T1, recombinant human IL-8, (ser-IL-8)72; test: inhibition of 125I-IL-8 binding to IL-8 receptors on human neutrophils; the legend column has no head, the text calls the values of this figure IC50's
[11] = molecular target: T2, rabbit IL-8; test: cell-based or functional assay; remark: listed apart in the source

B1: humanized 6G425 F(ab)-1 (Fab, V domains shown)
VH: EVQLVESGGGLVQPGGSLRLSCAASGYSFSSHYMHWVRQAPGKGLEWVGYIDPSNGETTYNQKFKGRFTISRDNSKNTLYLQMNSLRAEDTAVYYCARGDYRYNGDWFFDVWGQGTLVTVSS
VL: DIQMTQSPSSLSASVGDRVTITCRSSQSLVHGIGNTYLHWYQQKPGKAPKLLIYKVSNRFSGVPSRFSGSGSGTDFTLTISSLQPEDFATYYCSQSTHVPLTFGQGTKVEIKR
notes: Fab with human kappa subgroup I light chain and human IgG1 subgroup III heavy chain of phagemid pEMX1; unaltered CDR swap; also called version 1; V1
fold reduction in binding affinity [1]: 5.5 fold
IC50 (read off the curve) [2]: ~20 nM

B2: 6G4V11N35A Fab' modified with 40 kD linear PEG-maleimide (Fab, V domains shown)
VH: EVQLVQSGGGLVQPGGSLRLSCAASGYSFSSHYMHWVRQAPGKGLEWVGYIDPSNGETTYNQKFKGRFTLSRDNSKNTAYLQMNSLRAEDTAVYYCARGDYRYNGDWFFDVWGQGTLVTVSS
VL: DIQMTQSPSSLSASVGDRVTITCRSSQSLVHGIGATYLHWYQQKPGKAPKLLIYKVSNRFSGVPSRFSGSGSGTDFTLTISSLQPEDFATYYCSQSTHVPLTFGQGTKVEIKR
modifications: 40 kD linear methoxy-PEG-maleimide on the free cysteine in the hinge region
IC50, PMN chemotaxis [3]: 3.7 nM

B3: humanized 6G425 F(ab)-3 (Fab, V domains shown)
VH: EVQLVESGGGLVQPGGSLRLSCAASGYSFSSHYMHWVRQAPGKGLEWVGYIDPSNGETTYNQKFKGRFTISVDNSKNTLYLQMNSLRAEDTAVYYCARGDYRYNGDWFFDVWGQGTLVTVSS
VL: DIQMTQSPSSLSASVGDRVTITCRSSQSLVHGIGNTYLHWYQQKPGKAPKLLIYKVSNRFSGVPSRFSGSGSGTDFTLTISSLQPEDFATYYCSQSTHVPLTFGQGTKVEIKR
notes: template F(ab)-1; also called version 3
fold decrease in IL-8 binding [4]: < 2 fold

B4: full length 6G4V11N35A IgG1 (antibody, V domains shown, not shown: a dimerising Fc or GST)
VH: EVQLVQSGGGLVQPGGSLRLSCAASGYSFSSHYMHWVRQAPGKGLEWVGYIDPSNGETTYNQKFKGRFTLSRDNSKNTAYLQMNSLRAEDTAVYYCARGDYRYNGDWFFDVWGQGTLVTVSS
VL: DIQMTQSPSSLSASVGDRVTITCRSSQSLVHGIGATYLHWYQQKPGKAPKLLIYKVSNRFSGVPSRFSGSGSGTDFTLTISSLQPEDFATYYCSQSTHVPLTFGQGTKVEIKR
IC50, neutrophil chemotaxis [5]: 4 nM
IC50, neutrophil chemotaxis [3]: 4 nM

B5: humanized 6G425 F(ab)-9 (humanized 6G4V11 Fab) (Fab, V domains shown)
VH: EVQLVQSGGGLVQPGGSLRLSCAASGYSFSSHYMHWVRQAPGKGLEWVGYIDPSNGETTYNQKFKGRFTLSRDNSKNTAYLQMNSLRAEDTAVYYCARGDYRYNGDWFFDVWGQGTLVTVSS
VL: DIQMTQSPSSLSASVGDRVTITCRSSQSLVHGIGNTYLHWYQQKPGKAPKLLIYKVSNRFSGVPSRFSGSGSGTDFTLTISSLQPEDFATYYCSQSTHVPLTFGQGTKVEIKR
IC50, neutrophil chemotaxis [6]: ~15 nM
IC50, neutrophil chemotaxis [7]: ~22 nM

B6: humanized 6G425 F(ab)-8 (Fab, V domains shown)
VH: EVQLVESGGGLVQPGGSLRLSCAASGYSFSSHYMHWVKQAPGKGLEWVGYIDPSNGETTYNQKFKGRFTLSRDNSKNTAYLQMNSLRAEDTAVYYCARGDYRYNGDWFFDVWGQGTLVTVSS
VL: DIQMTQSPSSLSASVGDRVTITCRSSQSLVHGIGNTYLHWYQQKPGKAPKLLIYKVSNRFSGVPSRFSGSGSGTDFTLTISSLQPEDFATYYCSQSTHVPLTFGQGTKVEIKR
IC50, neutrophil chemotaxis [3]: 12 nM

B7: 6G4V11N35E Fab (Fab, V domains shown)
VH: EVQLVQSGGGLVQPGGSLRLSCAASGYSFSSHYMHWVRQAPGKGLEWVGYIDPSNGETTYNQKFKGRFTLSRDNSKNTAYLQMNSLRAEDTAVYYCARGDYRYNGDWFFDVWGQGTLVTVSS
VL: DIQMTQSPSSLSASVGDRVTITCRSSQSLVHGIGETYLHWYQQKPGKAPKLLIYKVSNRFSGVPSRFSGSGSGTDFTLTISSLQPEDFATYYCSQSTHVPLTFGQGTKVEIKR
IC50, neutrophil chemotaxis [3]: ~1.2 nM

B8: full length 6G4V11N35E IgG1 (antibody, V domains shown, not shown: a dimerising Fc or GST)
VH: EVQLVQSGGGLVQPGGSLRLSCAASGYSFSSHYMHWVRQAPGKGLEWVGYIDPSNGETTYNQKFKGRFTLSRDNSKNTAYLQMNSLRAEDTAVYYCARGDYRYNGDWFFDVWGQGTLVTVSS
VL: DIQMTQSPSSLSASVGDRVTITCRSSQSLVHGIGETYLHWYQQKPGKAPKLLIYKVSNRFSGVPSRFSGSGSGTDFTLTISSLQPEDFATYYCSQSTHVPLTFGQGTKVEIKR
IC50, neutrophil chemotaxis [5]: 2 nM
IC50, neutrophil chemotaxis [3]: 6 nM

B9: 6G4V11N35A Fab (Fab, V domains shown)
VH: EVQLVQSGGGLVQPGGSLRLSCAASGYSFSSHYMHWVRQAPGKGLEWVGYIDPSNGETTYNQKFKGRFTLSRDNSKNTAYLQMNSLRAEDTAVYYCARGDYRYNGDWFFDVWGQGTLVTVSS
VL: DIQMTQSPSSLSASVGDRVTITCRSSQSLVHGIGATYLHWYQQKPGKAPKLLIYKVSNRFSGVPSRFSGSGSGTDFTLTISSLQPEDFATYYCSQSTHVPLTFGQGTKVEIKR
notes: also called 6G4.2.5V11N35A Fab; Fab control
IC50 (read off the curve) [8]: ~1 nM
average IC50, neutrophil chemotaxis [6]: 1 nM
average IC50, neutrophil chemotaxis [5]: 5 nM
IC50, PMN chemotaxis [3]: 0.8 nM
average IC50, neutrophil chemotaxis [3]: 2.7 nM

B10: humanized 6G425 F(ab)-2 (Fab, V domains shown)
VH: EVQLVESGGGLVQPGGSLRLSCAASGYSFSSHYMHWVRQAPGKGLEWVGYIDPSNGETTYNQKFKGRATISRDNSKNTLYLQMNSLRAEDTAVYYCARGDYRYNGDWFFDVWGQGTLVTVSS
VL: DIQMTQSPSSLSASVGDRVTITCRSSQSLVHGIGNTYLHWYQQKPGKAPKLLIYKVSNRFSGVPSRFSGSGSGTDFTLTISSLQPEDFATYYCSQSTHVPLTFGQGTKVEIKR
notes: template F(ab)-1; also called version 2
fold decrease in IL-8 binding [4]: < 2 fold

B11: chimeric 5.12.14 Fab (Fab, V domains shown)
VH: EVQLVESGGGLVPPGGSLKLSCAASGFIFSSYGMSWVRQTPGKSLELVATINNNGDSTYYPDSVKGRFTISRDNAKNTLYLQMSSLKSEDTAMFYCARALISSATWFGYWGQGTLVTVSA
VL: DIVMTQSQKFMSTSVGDRVSVTCKASQNVGTNVAWYQQKPGQSPKALIYSSSYRYSGVPDRFTGSGSGTDFTLTISHVQSEDLADYFCQQYNIYPLTFGPGTKLELRR
IC50 (4 parameter fit) of the inhibition of human IL-8 (100 nM) stimulated elastase release from human neutrophils [9]: 0.643 molar ratio Fab:IL-8 (x axis; 100 nM IL-8)

B12: 6G4V11N35A F(ab')2 leucine zipper (other)
light: DIQMTQSPSSLSASVGDRVTITCRSSQSLVHGIGATYLHWYQQKPGKAPKLLIYKVSNRFSGVPSRFSGSGSGTDFTLTISSLQPEDFATYYCSQSTHVPLTFGQGTKVEIKRTVAAPSVFIFPPSDEQLKSGTASVVCLLNNFYPREAKVQWKVDNALQSGNSQESVTEQDSKDSTYSLSSTLTLSKADYEKHKVYACEVTHQGLSSPVTKSFNRGEC
heavy: not shown
average IC50, neutrophil chemotaxis [6]: 1 nM
average IC50, neutrophil chemotaxis [5]: 4 nM
average IC50, neutrophil chemotaxis [3]: 1.5 nM

B13: 6G4V11N35A F(ab')2 modified with a single 40 kD branched PEG molecule (other)
light: DIQMTQSPSSLSASVGDRVTITCRSSQSLVHGIGATYLHWYQQKPGKAPKLLIYKVSNRFSGVPSRFSGSGSGTDFTLTISSLQPEDFATYYCSQSTHVPLTFGQGTKVEIKRTVAAPSVFIFPPSDEQLKSGTASVVCLLNNFYPREAKVQWKVDNALQSGNSQESVTEQDSKDSTYSLSSTLTLSKADYEKHKVYACEVTHQGLSSPVTKSFNRGEC
heavy: not shown
modifications: may carry PEG on a lysine or the N-terminus; site not defined
notes: one 40 kD branched PEG-succinimide (PEG2-NHS-40 KDa) per F(ab')2, on a primary amine; also called single 40 kD branched PEG-modified F(ab')2; branched(1)40 KDa-(N)-(Fab')2
IC50 [10]: 0.38 nM

B14: 6G4V11N35A F(ab')2 modified with a single 20 kD linear PEG molecule (other)
light: DIQMTQSPSSLSASVGDRVTITCRSSQSLVHGIGATYLHWYQQKPGKAPKLLIYKVSNRFSGVPSRFSGSGSGTDFTLTISSLQPEDFATYYCSQSTHVPLTFGQGTKVEIKRTVAAPSVFIFPPSDEQLKSGTASVVCLLNNFYPREAKVQWKVDNALQSGNSQESVTEQDSKDSTYSLSSTLTLSKADYEKHKVYACEVTHQGLSSPVTKSFNRGEC
heavy: not shown
modifications: may carry PEG on a lysine or the N-terminus; site not defined
notes: one 20 kD linear PEG-succinimide (M-SPA-20000) per F(ab')2, on a primary amine; also called single 20 kD linear PEG-modified F(ab')2; linear(1)20 KDa-(N)-(Fab')2
IC50 [10]: 0.296 nM

B15: chimeric 6G4.2.5 Fab (Fab, V domains shown)
VH: EIQLQQSGPELMKPGASVKISCKASGYSFSSHYMHWVKQSHGKSLEWIGYIDPSNGETTYNQKFKGKATLTVDTSSSTANVHLSSLTSDDSAVYFCARGDYRYNGDWFFDVWGAGTTVTVSS
VL: DIVMTQTPLSLPVSLGDQASISCRSSQSLVHGIGNTYLHWYLQKPGQSPKLLIYKVSNRFSGVPDRFSGSGSGTDFTLRISRVEAEDLGLYFCSQSTHVPLTFGAGTKLELKR
IC50 (4 parameter fit) of the inhibition of human IL-8 (100 nM) stimulated elastase release from human neutrophils [9]: 0.635 molar ratio Fab:IL-8 (x axis; 100 nM IL-8)
IC50 (4 parameter fit) of the inhibition of rabbit IL-8 (100 nM) stimulated elastase release from human neutrophils (absorbance 405 nM) [11]: 1.04 molar ratio Fab:rIL-8 (x axis; 100 nM rIL-8)
